These results are taken from patent US20230057263A1 (CYTOMX THERAPEUTICS, published 2023).

No end group written: not given here. *: point of attachment. Biotin = O=C1N[C@H]2[C@H](CS[C@H]2CCCCC(=O)*)N1; code X = not defined here

The target in assay [1] is T1, (H2N-KEFSELEQSGYYVCYPRGSNPEDA-OH) vCD3e #p3-BSA (conjugated to BSA).
T1 construct: also called control peptide #p3
T1 peptide: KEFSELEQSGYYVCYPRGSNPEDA
Kind of assay: Luminex bead assay [Cont.]. The procedure: (§1) A set of experiments was performed to map the epitope recognized by the anti-CD3ε antibodies. In these experiments, the anti-CD3ε antibodies were assessed for binding to a collection of overlapping 15-mer peptides spanning amino acids 1-27 of human CD3ε protein using a Luminex bead assay. Control CD3 proteins, control peptides, or the test peptides were immobilized on Luminex beads and incubated with a panel of anti-CD3 antibodies. Binding of the anti-CD3 antibodies to the peptide/protein immobilized on the Luminex bead was detected by R-Phycoerythrin conjugated secondary antibody.
(§2) Recombinant CD3 proteins (human CD3d/e heterodimer and cynomolgus CD3-epsilon (Sinobiological)) and control peptides (#p1, #p2, and #p3) were conjugated to Luminex beads using standard EDC/Sulfo-NHS chemistry. The 15-mer test peptides were synthesized as biotinylated peptides at JPT Peptide Technologies Gmbh and were immobilized on streptavidin-conjugated Luminex beads that were made using standard EDC/Sulfo-NHS chemistry and streptavidin (Invitrogen Cat. No. 434301 lot 1626028A). The Luminex beads with immobilized peptides or reagents were incubated with 50 ul of a panel of anti-CD3 antibodies (1 ug/ml) for one hour at room temperature, washed two times, incubated with mixture of anti-human and anti-mouse IgG-RPE (Jackson Immunoresearch 109-116-097 and Southern Biotech 1030-09, respectively) for 30 mins at RT, washed three times, and analyzed in the Luminex instrument to assess the level of bound anti-CD3 antibodies.

Another assay addresses T2, B X GNEEMGGITQTPYKV (reading uncertain).
T2 construct: row 4 of the chart; also called biotinylated 15-mer, residues 3-17
T2 peptide: {Biotin-code X}-GNEEMGGITQTPYKV
The assay is described as follows: Luminex bead assay [Cont.]. Here is the method:
as §1, §2

A further assay has as its target T3, B X NEEMGGITQTPYKVS (reading uncertain).
T3 construct: row 5 of the chart; also called biotinylated 15-mer, residues 4-18
T3 peptide: {Biotin-code X}-NEEMGGITQTPYKVS
The assay is described as follows: Luminex bead assay [Cont.]. Here is the method:
as §1, §2

The next assay addresses T4, B X EEMGGITQTPYKVSI (reading uncertain).
T4 construct: row 6 of the chart; also called biotinylated 15-mer, residues 5-19
T4 peptide: {Biotin-code X}-EEMGGITQTPYKVSI
Kind of assay: Luminex bead assay [Cont.]. Here is the method:
as §1, §2

The target of the next assay is T5, B X EMGGITQTPYKVSIS (reading uncertain).
T5 construct: row 7 of the chart; also called biotinylated 15-mer, residues 6-20
T5 peptide: {Biotin-code X}-EMGGITQTPYKVSIS
The assay is described as follows: Luminex bead assay [Cont.]. The procedure: as §1, §2

The next assay addresses T6, B X MGGITQTPYKVSISG (reading uncertain).
T6 construct: row 8 of the chart; also called biotinylated 15-mer, residues 7-21
T6 peptide: {Biotin-code X}-MGGITQTPYKVSISG
Kind of assay: Luminex bead assay [Cont.]. Here is the method: as §1, §2

A further assay concerns the target T7, B X GGITQTPYKVSISGT (reading uncertain).
T7 construct: row 9 of the chart; also called biotinylated 15-mer, residues 8-22
T7 peptide: {Biotin-code X}-GGITQTPYKVSISGT
Kind of assay: Luminex bead assay [Cont.]. Here is the method: as §1, §2

For a further assay, the target named is T8, B X GITQTPYKVSISGTT (reading uncertain).
T8 construct: row 10 of the chart; also called biotinylated 15-mer, residues 9-23
T8 peptide: {Biotin-code X}-GITQTPYKVSISGTT
Kind of assay: Luminex bead assay [Cont.]. The procedure:
as §1, §2

In the next assay the target is T9, B X ITQTPYKVSISGTTV (reading uncertain).
T9 construct: row 11 of the chart; also called biotinylated 15-mer, residues 10-24
T9 peptide: {Biotin-code X}-ITQTPYKVSISGTTV
The assay is described as follows: Luminex bead assay [Cont.]. Here is the method:
as §1, §2

For a further assay, the target named is T10, B X TQTPYKVSISGTTVI (reading uncertain).
T10 construct: row 12 of the chart; also called biotinylated 15-mer, residues 11-25
T10 peptide: {Biotin-code X}-TQTPYKVSISGTTVI
Kind of assay: Luminex bead assay [Cont.]. Here is the method:
as §1, §2

Another assay addresses T11, B X QTPYKVSISGTTVIL (reading uncertain).
T11 construct: row 13 of the chart; also called biotinylated 15-mer, residues 12-26
T11 peptide: {Biotin-code X}-QTPYKVSISGTTVIL
The assay is described as follows: Luminex bead assay [Cont.]. Here is the method:
as §1, §2

Another assay has as its target T12, B X TPYKVSISGTTVILT (reading uncertain).
T12 construct: row 14 of the chart; also called biotinylated 15-mer, residues 13-27
T12 peptide: {Biotin-code X}-TPYKVSISGTTVILT
The assay is described as follows: Luminex bead assay [Cont.]. The procedure: as §1, §2

The next assay addresses T13, B X QAGNEEMGGITQTP (reading uncertain).
T13 construct: row 16 of the chart; also called alanine-scan peptide D2A
T13 peptide: {Biotin-code X}-QAGNEEMGGITQTP
Kind of assay: Luminex bead assay [Cont.]. The procedure:
as §1, §2

The target in a further assay is T14, B X QDANEEMGGITQTP (reading uncertain).
T14 construct: row 17 of the chart; 14 residues; also called alanine-scan peptide G3A
T14 peptide: {Biotin-code X}-QDANEEMGGITQTP
Kind of assay: Luminex bead assay [Cont.]. The procedure:
as §1, §2

The target of another assay is T15, B X QDGAEEMGGITQTP (reading uncertain).
T15 construct: row 18 of the chart; 14 residues; also called alanine-scan peptide N4A
T15 peptide: {Biotin-code X}-QDGAEEMGGITQTP
The assay is described as follows: Luminex bead assay [Cont.]. The procedure: as §1, §2

Another assay concerns the target T16, BSA alone (bovine, UniProt P02769).
T16 construct: carrier protein without peptide
The assay is described as follows: Luminex bead assay [Cont.]. Here is the method:
as §1, §2

The target in the next assay is T17, human CD3 epsilon (CD3ε) (human, UniProt P07766 23-207).
T17 construct: Present on donor human T cells as part of the TCR-CD3 complex; also called CD3ε on human T cells
Kind of assay: flow cytometry on human T cells. The procedure: (§3) In these experiments, human or cynomolgus T cells were incubated with an anti-CD3ε antibody and binding was assessed by flow cytometry.
(§4) Briefly, donor T cells from either human or cynomolgus donors were resuspended in FACS buffer containing 0.1% sodium azide and aliquoted in 100 μL volumes. For incubation, 100 μL aliquots of donor T cells were mixed with 50 μL of antibodies diluted in FACS buffer containing 0.1% sodium azide. The cells were then washed twice with FACS buffer containing sodium azide. The bound antibody was detected by incubating cells for 60 minutes with a 1:200 dilution of SAV-RPE (Invitrogen Cat No. SA10044, Lot. 1542820A) or 1:100 dilution of goat-anti-Mouse Fcγ-RPE (Jackson Cat. No. 115-116-071, Lot. 108668, diluted in 0.2% goat serum). The cells were washed, fixed, and analyzed with an Accuri Flow Cytometer.
(§5) Treatment with OKT3, SP34-2, and diL2K antibodies were used as positive controls for T cell binding. […] Treatment with OKT3, SP34-2, and diL2K antibodies were used as controls for T cell binding with only SP34-2 binding to cynomolgus T cells, as expected.
In general terms: Flow cytometry measures light scatter and fluorescence of single cells or particles in a stream.

The target of another assay is T18, cynomolgus CD3-epsilon (cynomolgus, UniProt Q95LI5 22-198).
T18 construct: whole, on cells; also called CD3ε on cynomolgus T cells / PBMCs
T18 sequence (Q95LI5 22-198): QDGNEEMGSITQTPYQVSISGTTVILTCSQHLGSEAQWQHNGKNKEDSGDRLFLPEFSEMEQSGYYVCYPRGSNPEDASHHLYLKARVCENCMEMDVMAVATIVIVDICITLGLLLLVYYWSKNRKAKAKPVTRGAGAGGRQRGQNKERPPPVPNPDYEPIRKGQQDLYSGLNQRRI
Kind of assay: flow cytometry on cynomolgus T cells. Here is the method: as §3, §4, §5

T16 sequence (P02769 25-607 limits assumed): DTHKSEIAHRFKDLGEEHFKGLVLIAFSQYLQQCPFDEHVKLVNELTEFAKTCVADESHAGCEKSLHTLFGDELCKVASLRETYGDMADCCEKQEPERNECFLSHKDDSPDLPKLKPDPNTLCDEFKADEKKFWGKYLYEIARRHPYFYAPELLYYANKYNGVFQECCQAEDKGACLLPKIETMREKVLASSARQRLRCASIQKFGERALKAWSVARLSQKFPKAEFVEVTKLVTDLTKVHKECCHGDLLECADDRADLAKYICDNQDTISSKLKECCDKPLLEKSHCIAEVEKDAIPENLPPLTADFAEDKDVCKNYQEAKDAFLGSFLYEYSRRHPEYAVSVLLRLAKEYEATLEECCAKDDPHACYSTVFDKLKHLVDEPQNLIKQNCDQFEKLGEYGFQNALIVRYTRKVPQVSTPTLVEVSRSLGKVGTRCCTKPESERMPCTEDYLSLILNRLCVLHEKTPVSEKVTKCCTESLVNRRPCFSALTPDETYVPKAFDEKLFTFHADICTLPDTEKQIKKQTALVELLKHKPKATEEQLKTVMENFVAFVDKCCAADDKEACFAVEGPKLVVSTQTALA

B1: 6d59 (antibody, V domains shown)
VH: QVHLVESGGGVVQPGRSLRLSCAASGFKFRSYGMHWVRQAPGKGLEWVAIIWYDGSKRYYADSVKGRFTISRDNSKNTLYLQMSSLRAEDTAVYYCARDLITGTTDYWGQGTLVTVSS
VL: DVVMTQSPLSLPVTLGQPASISCRSSRSLVYSDGNTHLIWFQQRPGQSPRRLIYRVSNRVSGVPDRFSGSGSGTDFTLKISRVEAEDVGVYYCLQGAHWPYTFGQGTKLEIKR
notes: also called 6d59.1; VCD3-6d59.1
Regarding B1, the binding result (in assay [1]; with B X GNEEMGGITQTPYKV; in the assay with B X NEEMGGITQTPYKVS; in the assay with B X EEMGGITQTPYKVSI; with B X EMGGITQTPYKVSIS; with B X MGGITQTPYKVSISG) was “no binding (tested: 1 ug/ml)” throughout. The binding result in the assay with B X GGITQTPYKVSISGT, with B X GITQTPYKVSISGTT, with B X ITQTPYKVSISGTTV, in the assay with B X TQTPYKVSISGTTVI, with B X QTPYKVSISGTTVIL and with B X TPYKVSISGTTVILT was “no binding (tested: 1 ug/ml)” throughout. In addition, the binding result with B X QAGNEEMGGITQTP, in the assay with B X QDANEEMGGITQTP, with B X QDGAEEMGGITQTP and with BSA alone was “no binding (tested: 1 ug/ml)” in each case. In addition, the concentration giving a half-maximal response (EC50 (read off the curve)) – broadly, the concentration that produces a half-maximal response – with human CD3 epsilon (CD3ε) is roughly 0.06 nM; in the assay with cynomolgus CD3-epsilon, roughly 0.07 nM.
